± gives the uncertainty stated by the source.
Test: self-splicing fitness, log relative to wild type (ln ratio); higher = more splicing; Tetrahymena group I intron in knt gene, E. coli kanamycin selection, DiMSum; sequences stand for … in CUCUCU…GGAGGGAAAAGUUAUCAGGCAUGCACCUGGUAGCUAGUCUUUAAACCAAUAGAUUGCAUCGGUUUAAAAGGCAAGACCGUCAAAUUGCGGGAAAGGGGUCAACAGCCGUUCAGUACCAAGUCUCAGGGGAAACUUUGAGAUGGCCUUGCAAAGGGUAUGGUAAUAAGCUGACGGACAUGGUCCUAACCACGCAGCCAAGUCCUAAGUCAACAGAUCUUCUGUUGAUAUGGAUGCAGUUCACAGACUAAAUGUCGGUCGGGGAAGAUGUAUUCUUCUCAUAAGAUAUAGUCGGACCUCUCCUUAAUGGGAGCUAGCGGAUGAAGUGAUGCAACACUGGAGCCGCUGGGAACUAAUUUGUAUGCGAAAGUAUAUUGAUUAGUUUUGGAGUACUCGUGGUCG
Procedure, shortened: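 DiMSum derived fitness as the error-weighted combination of fold changes across replicates, kanamycin versus no kanamycin, normalised to wild type. E. coli BL21(DE3) held the library, which randomised all eight P1ex-region intron nucleotides within the knt kanamycin-resistance gene on pET-22b(+). Six replicate transformations grew overnight at 37°C or 30°C on LB agar with or without 25 μg/mL kanamycin, also containing 100 μg/mL carbenicillin, 50 μM IPTG and 0.2% rhamnose, and pooled colonies were amplicon-sequenced on an Illumina HiSeq 2500.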

Sequence	self-splicing fitness (ln) (30 °C)	self-splicing fitness (ln) (37 °C)
CCCGAGCAAUAUUACGACAU	-3.865 ± 0.026	-2.88 ± 0.041
CCCGAGCAAUAUUACGAUAC	-2.29 ± 0.27	-1.57 ± 0.36
CCCGAGCAAUAUUACGAUGU	-3.46 ± 0.25	-2.13 ± 0.27
CCCGAGCAAUAUUACGCCAC	-3.54 ± 0.26	-2.84 ± 0.31
CCCGAGCAAUAUUACGCUCU	–	-2.7 ± 0.29
CCCGAGCAAUAUUACGCUGA	-3.44 ± 0.35	-2.26 ± 0.2
CCCGAGCAAUAUUACGCUGC	-2.93 ± 0.21	-2.63 ± 0.3
CCCGAGCAAUAUUACGGAGU	-3.46 ± 0.25	-2.87 ± 0.22
CCCGAGCAAUAUUACGGAUU	-4.16 ± 0.18	-2.55 ± 0.17
CCCGAGCAAUAUUACGGCAU	-3.28 ± 0.37	-1.85 ± 0.32
CCCGAGCAAUAUUACGGGAC	-3.05 ± 0.18	-1.89 ± 0.19
CCCGAGCAAUAUUACGGUCA	-4.25 ± 0.46	-2.57 ± 0.26
CCCGAGCAAUAUUACGGUUG	-3.65 ± 0.15	-1.81 ± 0.11
CCCGAGCAAUAUUACGUAUU	-3.8 ± 0.17	-3.48 ± 0.24
CCCGAGCAAUAUUACGUCAU	-3.95 ± 0.31	-2.99 ± 0.26
CCCGAGCAAUAUUACGUCUG	-3.73 ± 0.29	-2.32 ± 0.26
CCCGAGCAAUAUUACGUGUU	-3.93 ± 0.15	-3 ± 0.17
CCCGAGCAAUAUUACGUUCG	-4.22 ± 0.42	-2.55 ± 0.3
CCCUAGCAAUAUUACGAACA	–	-2.55 ± 0.42
CCCUAGCAAUAUUACGAAGG	-4.03 ± 0.21	-2.71 ± 0.23
CCCUAGCAAUAUUACGAGCG	-2.86 ± 0.21	-1.13 ± 0.19
CCCUAGCAAUAUUACGAUUG	-3.45 ± 0.21	-2.38 ± 0.21
CCCUAGCAAUAUUACGCAGA	-3.68 ± 0.31	-1.73 ± 0.15
CCCUAGCAAUAUUACGCCAC	-2.88 ± 0.27	-1.6 ± 0.26

Sequence	self-splicing fitness (ln) (30 °C)	self-splicing fitness (ln) (37 °C)
CCCUAGCAAUAUUACGCCCA	-3.12 ± 0.25	-3.76 ± 0.42
CCCUAGCAAUAUUACGCUCG	-2.25 ± 0.2	-2.85 ± 0.48
CCCUAGCAAUAUUACGCUUA	-3.78 ± 0.18	-2.86 ± 0.12
CCCUAGCAAUAUUACGCUUC	-2.66 ± 0.1	-2.36 ± 0.16
CCCUAGCAAUAUUACGGACC	-0.914 ± 0.3	–
CCCUAGCAAUAUUACGGAGG	-2.87 ± 0.15	-2.77 ± 0.26
CCCUAGCAAUAUUACGGCAU	-3.41 ± 0.24	-1.94 ± 0.17
CCCUAGCAAUAUUACGGGGG	-3.85 ± 0.24	-3.36 ± 0.3
CCCUAGCAAUAUUACGUCAA	-3.16 ± 0.32	-3.46 ± 0.39
CCCUAGCAAUAUUACGUCCG	-4.17 ± 0.26	-2.57 ± 0.23
CCCUAGCAAUAUUACGUCCU	-4.12 ± 0.37	-2.06 ± 0.28
CCCUAGCAAUAUUACGUCUC	-3.71 ± 0.41	-2.67 ± 0.27
CCCUAGCAAUAUUACGUUAU	-4.33 ± 0.26	-2.76 ± 0.19
CCGAAGCAAUAUUACGACUA	-2.1 ± 0.37	-2.65 ± 0.36
CCGAAGCAAUAUUACGAUAG	-0.89 ± 0.061	-0.284 ± 0.08
CCGAAGCAAUAUUACGCAAU	-3.92 ± 0.4	-1.94 ± 0.23
CCGAAGCAAUAUUACGCACA	-3.87 ± 0.37	-2.59 ± 0.28
CCGAAGCAAUAUUACGCACU	-2.98 ± 0.26	-2.68 ± 0.44
CCGAAGCAAUAUUACGCGAG	-2.65 ± 0.11	-2.08 ± 0.15
CCGAAGCAAUAUUACGGAGA	-2.52 ± 0.25	-2.68 ± 0.34
CCGAAGCAAUAUUACGGAUG	-2.94 ± 0.19	-0.504 ± 0.095
CCGAAGCAAUAUUACGGCCG	-0.396 ± 0.099	-0.442 ± 0.12
CCGAAGCAAUAUUACGGUAU	-3.13 ± 0.25	-3.64 ± 0.36
CCGAAGCAAUAUUACGGUGA	–	-3.25 ± 0.43

— the supplement of paper PMC7877785
